Paper doi:10.1101/2020.06.21.163824

Tests used:
[1] = molecular target: rhTNFα labeled in the amine groups (NT-650, NHS-coupling) (human) (UniProt P01375); assay: MST
[2] = molecular target: recombinant human TNFα (soluble human TNFα, residues 85-233, C-terminal His tag) (human) (UniProt P01375); assay: ELISA
[3] = molecular target: Adalimumab labeled with NT-647 in the thiol groups (Cys-coupling) (human); assay: MST

| Substance | KD of the first phase (Adalimumab 30.5 pM to 7.8 nM) [1] [pM] | KD of the second phase (Adalimumab 1.95 to 1 µM) [1] [nM] | Kd [2] [nM] | OD50 (antagonist concentration at half-maximal OD), rhTNFα coated at 1,25 µg/ml [2] [nM] | OD50 (antagonist concentration at half-maximal OD), rhTNFα coated at 2,5 µg/ml [2] [nM] | Kd [3] [nM] |
| --- | --- | --- | --- | --- | --- | --- |
| Adalimumab (Humira) (antibody) | 100 | 21 | 1.32 | 0.641 | 0.622 |  |
| recombinant human TNFα (soluble human TNFα, residues 85-233, C-terminal His tag) (from UniProt P01375 85-233) (ligand) |  |  |  |  |  | 29.6 |
